The test system of one data set is CC(C)C=O. Put plainly: cells, lysate or membranes. The following applies: conversion to isobutanol.
Substrate in data set [1]: NC(=O)C1=CN([C@@H]2O[C@H](COP(=O)(O)OP(=O)(O)OC[C@H]3O[C@@H](n4cnc5c(N)ncnc54)[C@H](O)[C@@H]3O)[C@@H](O)[C@H]2O)C=CC1
Kind of data set: KARI cuvette assay, purified Ec_IlvC^B8A71S-his6. The data set is classed as biochemical, E. coli. The procedure: (§1) KARI cuvette assay: KARI activity was assayed kinetically by monitoring the decrease in NAD(P)H concentration by measuring the absorbance at 340 nm. A reaction buffer was prepared containing 250 mM potassium phosphate pH 7, 1 mM DTT and 10 mM MgCl2. Cell pellets were resuspended (0.25 g wet weight/mL buffer) in 250 mM potassium phosphate (KPi) buffer containing 1 mM DTT and 10 mM MgCl2. The resuspended cells were lysed by sonication for 1 min with a 50% duty cycle and pelleted at 11000×g and 4° C. for 15 min. A reaction mixture consisting of 910 μl reaction buffer, 50 μl acetolactate, and 20 μl lysate was prepared in a cuvette. The reaction was initiated by addition of 20 μL of 10 mM NAD(P)H. A substrate free control was conducted using reaction buffer without the addition of acetolactate.
(§2) Purification of KARI: Cell pellets used for purification were resuspended in purification buffer A (20 mM Tris, 20 mM imidazol, 100 mM NaCl, 10 mM MgCl2, pH 7.4). KARI was purified by IMAC (Immobilized metal affinity chromatography) over a 1 ml Histrap High Performance (histrap HP) column pre-charged with Nickel (GE Healthcare) using an Akta FPLC system (GE Healthcare). The column was equilibrated with four column volumes (cv) of buffer A. After injecting the crude extract, the column was washed with buffer A for 2 cv, followed by a wash step with a mixture of 10% elution buffer B (20 mM Tris, 300 mM imidazol, 100 mM NaCl, 10 mM MgCl2, pH 7.4) for 5 cv. KARI variants were eluted at 40% buffer B and stored at 4° C.
(§3) As a next step, the gene encoding variant Ec_llvC^Q110V-his6 (SEQ ID NO: 23) was used as template to generate individual combinations of the mutation Q110V with other mutations: R68L, A71T, A71S, R76G, R76S, R76T, S78D, and R76D. After screening the variants as described above, the most promising ones were expressed, purified, and characterized. Table 29 lists the KM values in μM on NADPH and NADH for Ec_llvC^his6, Ec_llvC^Q110V-his6, and variants of Ec_llvC^Q110V-his6. […] The A71S mutation was introduced into Ec_llvC^B8-his6 resulting in a variant Ec_llvC^B8A71S-his6, which yielded 44% catalytic efficiency on NADH compared to the catalytic efficiency of wild-type KARI on NADPH (FIG. 19 and Table 30).

Substrate in data set [2]: NC(=O)C1=CN([C@@H]2O[C@H](COP(=O)(O)OP(=O)(O)OC[C@H]3O[C@@H](n4cnc5c(N)ncnc54)[C@H](OP(=O)(O)O)[C@@H]3O)[C@@H](O)[C@H]2O)C=CC1
Put plainly: KARI cuvette assay, purified Ec_IlvC^B8A71S-his6. It is filed as biochemical, E. coli. The following applies: other: purified; acetolactate as substrate. The method, then: as §1, §2, §3

Substrate in data set [3]: NC(=O)C1=CN([C@@H]2O[C@H](COP(=O)(O)OP(=O)(O)OC[C@H]3O[C@@H](n4cnc5c(N)ncnc54)[C@H](O)[C@@H]3O)[C@@H](O)[C@H]2O)C=CC1
Kind of data set: KARI assay, purified Ec_IlvC^P2D1-A1-his6. The data set is classed as biochemical, E. coli. The following applies: other: expressed in yeast GEVO1186, purified; 30.0 °C. The method, then:
as §1, §2
Improved variants were expressed and purified from GEVO1186. 20 mL SC-URA medium overnight cultures were grown at 30° C. and 250 rpm in 250 mL flasks and were then used to inoculate 96 well deep well plates on the next morning. 50 μL of the overnight cultures were transferred into 600 μL SC-URA medium per well. The plates were then grown at 30° C. and 250 rpm in a humidified plate shaker for 8 h. In order to the harvest, the cultures were transferred into 50 mL Falcon tubes and then spun down at 4° C. and 5,000 rpm for 10 min. […]

Substrate in data set [4]: NC(=O)C1=CN([C@@H]2O[C@H](COP(=O)(O)OP(=O)(O)OC[C@H]3O[C@@H](n4cnc5c(N)ncnc54)[C@H](O)[C@@H]3O)[C@@H](O)[C@H]2O)C=CC1
Put plainly: KARI assay, purified Ec_IlvC^P2D1-his6. The data set is classed as biochemical, E. coli. The following applies: other: expressed in yeast GEVO1186, purified; 30.0 °C. The method, then:
as §1, §2
(§4) Improved variants were expressed and purified from GEVO1186. 20 mL SC-URA medium overnight cultures were grown at 30° C. and 250 rpm in 250 mL flasks and were then used to inoculate 96 well deep well plates on the next morning. 50 μL of the overnight cultures were transferred into 600 μL SC-URA medium per well. The plates were then grown at 30° C. and 250 rpm in a humidified plate shaker for 8 h. In order to the harvest, the cultures were transferred into 50 mL Falcon tubes and then spun down at 4° C. and 5,000 rpm for 10 min. The pellets were frozen until they were processed and purified as described in Example 14 above.
(§5) Results: Two rounds of error-prone PCR and screening were carried out. The libraries (˜2400 clones per library) were screened using the KARI high-throughput assay. […] In the first round variant Ec_llvC^P2D1-his6 (SEQ ID NO: 38), encoded by Ec_ilvC_coSc^P2D1-his6 (SEQ ID NO: 37) was identified carrying the following mutations: D146G and G185R. This variant served as parent for the second round of error-prone PCR and screening which yielded variant Ec_llvC^P2D1-A1-his6 (SEQ ID NO: 42), encoded by Ec_ilvC_coSc^P2D1-A1-his6 (SEQ ID NO: 41) with one additional mutation (K433E). A two-fold improvement of the specific activity in lysate and in the purified enzyme was observed after two rounds of error-prone PCR.

Substrate in data set [5]: NC(=O)C1=CN([C@@H]2O[C@H](COP(=O)(O)OP(=O)(O)OC[C@H]3O[C@@H](n4cnc5c(N)ncnc54)[C@H](OP(=O)(O)O)[C@@H]3O)[C@@H](O)[C@H]2O)C=CC1
Kind of data set: KARI assay, purified Ec_IlvC^P2D1-his6. It is filed as biochemical, E. coli. The following applies: other: expressed in yeast GEVO1186, purified; 30.0 °C. The procedure:
as §1, §2, §4, §5

Substrate in data set [6]: CC(C)C=O
Put plainly: Alcohol dehydrogenase kinetic assay, Dm_Adh. It is filed as biochemical, Drosophila melanogaster. The following applies: conversion to isobutanol. The method, then: (§6) E. coli strain GEVO1745 was transformed by electroporation with one of plasmids pGV1705-A, pGV1748-A, pGV1749-A, or pGV1778-A. 50 mL of TB medium (23.1 g/L KH2PO4, 125.4 g/L K2HPO4, 12 g/L Bacto-tryptone, 24 g/L yeast extract, 4 ml/L glycerol) were inoculated to an initial OD600 of 0.2 using a 3 mL overnight LB culture of a single colony. The 50 mL culture was allowed to grow for 3-4 hrs at 250 rpm and 37° C. Protein expression was induced at an OD600 of 2-2.5 by the addition of IPTG to a final concentration of 1 mM. After the addition of IPTG, protein expression was allowed to continue for 20-24 hours at 225 rpm and 25° C.
(§7) Alcohol dehydrogenase (ADH) activity was assayed kinetically by monitoring the decrease in NAD(P)H concentration by measuring the absorbance at 340 nm. A reaction buffer was prepared containing 0.1 M potassium phosphate, 0.4 mM NAD(P)H, 10 mM isobutyraldehyde, 1 mM DTT, and 1 mM PMSF. Cell pellets were resuspended in 0.1 M potassium phosphate buffer containing 1 mM DTT and 1 mM PMSF at one fifth of the culture volume, i.e. 10 mL resuspension buffer for cell pellet from a 50 mL culture. The resuspended cells were lysed by sonication for 1 min with a 50% duty cycle. The reaction was initiated by the addition of 0.5 mL of the reaction buffer to 0.5 mL of clarified lysate in a cuvette. […]

Substrate in data set [7]: CC(C)C=O
Kind of data set: Alcohol dehydrogenase kinetic assay, Ec_FucO. It is filed as biochemical, E. coli. The following applies: conversion to isobutanol. The procedure: as §6, §7

Where [8] appears, read: other: purified, acetolactate as substrate.

Residue numbers refer to the chain shown, from its start. In names and notes the source's numbering stands.

For six molecules, Km, kcat and kcat/Km results are on record in patent US8097440B1, “Engineered microorganisms capable of producing target compounds under anaerobic conditions” (Gevo, Inc., priority 2008, dated 2012).

What is called Km is the substrate concentration at which the rate is half of its maximum. Turning to “Klebsiella pneumoniae propanediol dehydrogenase Kp_DhaT, SEQ ID NO: 63 (Klebsiella pneumoniae)”, the Km with CC(C)C=O (other: NADH as cofactor) is 1300 µM; in the data set with CC(C)C=O (other: NADPH as cofactor) it was 600 µM.

B1: E. coli KARI Ec_IlvC variant Ec_IlvC^B8A71S-his6 (Q110V, S78D, A71S), SEQ ID NO: 29 (Escherichia coli K-12; A71S/Q110V/S78D) (protein)
chain: MANYFNTLNLRQQLAQLGKCRFMGRDEFADGASYLQGKKVVIVGCGAQGLNQGLNMRDSGLDISYALRKESIAEKRADWRKATENGFKVGTYEELIPQADLVINLTPDKVHSDVVRTVQPLMKDGAALGYSHGFNIVEVGEQIRKDITVVMVAPKCPGTEVREEYKRGFGVPTLIAVHPENDPKGEGMAIAKAWAAATGGHRAGVLESSFVAEVKSDLMGEQTILCGMLQAGSLLCFDKLVEEGTDPAYAEKLIQFGWETITEALKQGGITLMMDRLSNPAKLRAYALSEQLKEIMAPLFQKHMDDIISGEFSSGMMADWANDDKKLLTWREETGKTAFETAPQYEGKIGEQEYFDKGVLMIAMVKAGVELAFETMVDSGIIEESAYYESLHELPLIANTIARKRLYEMNVVISDTAEYGNYLFSYACVPLLKPFMAELQPGDLGKAIPEGAVDNGQLRDVNEAIRSHAIEQVGKKLRGYMTDMKRIAVAGLEHHHHHH
For orientation: kcat means the number of substrate molecules converted per active site and unit of time at saturation. For the molecule B1, in data set [1] (setting [8]), the Km came out at 53.5 µM, the kcat is 2.0 s⁻¹ and the kcat/Km is reported as 38,330 M^−1 * s^−1. In addition, the kcat/Km in data set [1] (with NADH) worked out at 37500 M⁻¹ s⁻¹. For the same molecule, in data set [2], the Km turned out to be 63.4 µM, the kcat was 2.4 s⁻¹ and the kcat/Km is 37,459 M^−1 * s^−1.

B2: E. coli KARI Ec_IlvC variant Ec_IlvC^P2D1-A1-his6 (Ec_IlvC^P2D1-his6 with K433E), SEQ ID NO: 42 (Escherichia coli K-12; A71S/D146G/G185R/K433E/Q110V/R76D/S78D) (protein)
chain: MANYFNTLNLRQQLAQLGKCRFMGRDEFADGASYLQGKKVVIVGCGAQGLNQGLNMRDSGLDISYALRKESIAEKDADWRKATENGFKVGTYEELIPQADLVINLTPDKVHSDVVRTVQPLMKDGAALGYSHGFNIVEVGEQIRKGITVVMVAPKCPGTEVREEYKRGFGVPTLIAVHPENDPKREGMAIAKAWAAATGGHRAGVLESSFVAEVKSDLMGEQTILCGMLQAGSLLCFDKLVEEGTDPAYAEKLIQFGWETITEALKQGGITLMMDRLSNPAKLRAYALSEQLKEIMAPLFQKHMDDIISGEFSSGMMADWANDDKKLLTWREETGKTAFETAPQYEGKIGEQEYFDKGVLMIAMVKAGVELAFETMVDSGIIEESAYYESLHELPLIANTIARKRLYEMNVVISDTAEYGNYLFSYACVPLLEPFMAELQPGDLGKAIPEGAVDNGQLRDVNEAIRSHAIEQVGKKLRGYMTDMKRIAVAGHHHHHH
Regarding B2, in data set [3], the Michaelis constant (Km) was 26 µM, the kcat is 4.3 s⁻¹ and the kcat/Km is 167,687 M^−1 * S^−1.

B3: E. coli KARI Ec_IlvC variant Ec_IlvC^P2D1-his6 (Ec_IlvC^6E6-his6 with D146G and G185R), SEQ ID NO: 38 (Escherichia coli K-12; A71S/D146G/G185R/Q110V/R76D/S78D) (protein)
chain: B2 chain with E433K
On to B3, for which, in data set [4], the Km worked out at 40 µM, the kcat worked out at 3.3 s⁻¹ and the kcat/Km is on record as 82,650 M^−1 * S^−1. In data set [5], the Km is 1432 µM, the kcat came to 0.54 s⁻¹ and the kcat/Km turned out to be 377 M^−1 * S^−1.

B4: Drosophila melanogaster alcohol dehydrogenase Dm_Adh, SEQ ID NO: 61 (Drosophila melanogaster) (protein)
chain: MSFTLTNKNVIFVAGLGGIGLDTSKELLKRDLKNLVILDRIENPAAIAELKAINPKVTVTFYPYDVTVPIAETTKLLKTIFAQLKTVDVLINGAGILDDHQIERTIAVNYTGLVNTTTAILDFWDKRKGGPGGIICNIGSVTGFNAIYQVPVYSGTKAAVVNFTSSLAKLAPITGVTAYTVNPGITRTTLVHTFNSWLDVEPQVAEKLLAHPTQPSLACAENFVKAIELNQNGAIWKLDLGTLEAIQWTKHWDSGI
notes: clarified crude lysate
B4: the figures for the Km in data set [6] (other: NADH as cofactor) and in data set [6] (other: NADPH as cofactor) were 900 µM and 2700 µM, respectively.

B5: Escherichia coli propanediol dehydrogenase Ec_FucO, SEQ ID NO: 65 (Escherichia coli K-12) (protein)
chain: MMANRMILNETAWFGRGAVGALTDEVKRRGYQKALIVTDKTLVQCGVVAKVTDKMDAAGLAWAIYDGVVPNPTITVVKEGLGVFQNSGADYLIAIGGGSPQDTCKAIGIISNNPEFADVRSLEGLSPTNKPSVPILAIPTTAGTAAEVTINYVITDEEKRRKFVCVDPHDIPQVAFIDADMMDGMPPALKAATGVDALTHAIEGYITRGAWALTDALHIKAIEIIAGALRGSVAGDKDAGEEMALGQYVAGMGFSNVGLGLVHGMAHPLGAFYNTPHGVANAILLPHVMRYNADFTGEKYRDIARVMGVKVEGMSLEEARNAAVEAVFALNRDVGIPPHLRDVGVRKEDIPALAQAALDDVCTGGNPREATLEDIVELYHTAW
notes: clarified crude lysate
As to B5, the Km in data set [7] (other: NADH as cofactor) came to 800 µM; in data set [7] (other: NADPH as cofactor), 200 µM.
